The results in this text go back to article PMC8274395 (Biochemistry, 2021).

This data set concerns the molecule itself. The data set can be described thus: crystal structure.

B1: Cj1441, UDP-glucose 6-dehydrogenase from Campylobacter jejuni NCTC 11168 (enzyme)
chain: MKIVIVGIGYVGLANAILFSKNNENEVVLLDIDENKIQSINNHKSPIKDKLIEKFFVQNISKLHATSNIKEAYFNADFAVIATPTDYDEQLNFFDTRSIENVLKDIKNINSKINVIIKSTVPIGYTKTIKQKFNMSNIVFSPEFLREGSALYDSLYPSRIIIGDKSVLGKTIGDLFLKNIEKKNVDIFYMDSDEAESVKLFSNTYLAMRVGFFNEVDSYARKHNLNSADIIKGISADDRIGKYYNNPSFGYGGYCLPKDTKQLLANFYNIPNSLIKAIVETNEIRKKFITQLILEKKPNILGIYRLIMKQNSDNFRNSVIIDIIKYLQEYNSNIELIIYEPLVKEKKFLNIKVENDFNVFGAKVDLIIANRFDDKLKEIKDKVFSADVFYTDI
Take B1: the binding result is listed as “binds”.
